Numbering of substitutions follows the chain as printed. Names and notes keep the numbering of the source.
Key:
[1] = biological target: T1, fructosyl amino acid oxidase from Phaeosphaeria nodorum (PnFPOX, SEQ ID NO: 1) variant N56A (Parastagonospora nodorum, UniProt Q0UIL6, N56A); test: Oxidase activity kinetics (4AA/TODB/POD), PnFPOX N56A mutant; assay type: biochemical; conditions: purified enzyme, 25° C., pH 7.0
Text: (§1) As used herein “oxidase activity” is an enzymatic activity (Vmax) of the fructosyl amino acid oxidase to catalyze oxidation of fructosyl amino acid to generate 2-keto-D-glucose and the corresponding amino acid while utilizing oxygen as an electron acceptor. The oxidase activity may be assayed by measuring the amount of generated H2O2 by any methods known in the art, including by way of non-limiting example, reagents for H2O2 detection such as […] (4-aminoantipyrine/N,N-Bis(4-sulfobutyl)-3-methylaniline disodium salt/horseradish peroxidase) or by Pt electrode. As used herein in the context of the relative or quantitative activity, the oxidase activity is specifically defined to be the mole amount of the substrate (fructosyl amino acid) oxidized per unit time measured by the amount of generated H2O2 at 25° C. in 10 mM PPB, pH 7.0, 1.5 mM TODB, 2 U/ml horseradish peroxidase (POD), and 1.5 mM 4-aminoantipyrine (4AA). The formation of quinoneimine dye may be measured spectrophotometrically at 546 nm.
(§2) Escherichia coli BL21 (DE3) cells harboring expression vectors of N1-1 FAOD (SEQ ID NO: 2) mutants were grown in 150 ml of LB medium containing 50 μg/ml kanamycin at 37° C. After reaching an A660 value of 0.6, 0.3 mM IPTG was added and incubated at 25° C. for an additional 5 hours. The cells were collected by centrifugation and washed twice with 0.85% NaCl.aq. Then, the cells were resuspended in 10 mM Potassium Phosphate Buffer (PPB) pH 7.0 and lysed by ultrasonic homogenizer. The lysate was centrifuged at 10,000×g, 4° C. for 10 min, and the supernatant was centrifuged at 50,000 rpm, 4° C. for 60 min, then the supernatant was dialyzed against 10 mM PPB (pH 7.0). The oxidase activity was assayed at 25° C. in 10 mM PPB, pH 7.0, 1.5 mM TODB, 2 U/ml horseradish peroxidase (POD), and 1.5 mM 4-aminoantipyrine (4AA) in the presence of substrates (0.2, 0.5, 0.75, 1, 2, 5 mM f-^αVal […]). The formation of quinoneimine dye was measured spectrophotometrically at 546 nm. The dehydrogenase activity was assayed at 25° C. in 10 mM PPB (pH 7.0), 0.6 mM DCIP, and 6 mM methoxy PMS (mPMS) in the presence of substrates (0.2, 0.5, 1, 2, 5 mM f-^αVal or 5 mM f-^αVal-His).
(§3) Mutations were introduced using site-directed mutagenesis as in Example 1, and BL21 (DE3) cells were transformed with an expression vector containing wild-type or mutant PnFPOX (SEQ ID NO: 1). The cultured cells were resuspended in 10 mM PPB, pH 7.0, and lysed by sonication. The lysate was centrifuged at 10,000 g at 4° C. for 20 min, and the supernatant was centrifuged at 50,000 rpm at 4° C. for 60 min. The oxidase and dehydrogenase activities were measured as in Example 1.
(§4) BL21 (DE3) transformed with pEPN (pET28a-PnFPOX)-N56A was grown aerobically at 37° C. in LB medium (2 l) containing 50 μg kanamycin ml^−1. […]

[2] = biological target: T1, fructosyl amino acid oxidase from Phaeosphaeria nodorum (PnFPOX, SEQ ID NO: 1) variant N56A; test: Dehydrogenase activity kinetics (mPMS/DCIP), PnFPOX N56A mutant; assay type: biochemical; conditions: purified enzyme, 25° C., pH 7.0
Text: (§5) As used herein, “dehydrogenase activity” is an enzymatic activity (Vmax) of the fructosyl amino acid oxidase to catalyze oxidation of fructosyl amino acid to generate 2-keto-D-glucose and the corresponding amino acid while utilizing an electron mediator other than oxygen as an electron acceptor. The dehydrogenase activity may be assayed by measuring the amount of electrons transferred to the mediator using, for example, one of mPMS/DCIP (1-methoxy-5-methylphenazinium methylsulfate/2,6-dichloroindophenol), cPES (trifluoro-acetate-1-(3-carboxy-propoxy)-5-ethyl-phenanzinium, NA BM31—1144 (N,N-bis-(hydroxyethyl)-3-methoxynitrosoaniline hydrochloride, NA BM31—1008 (N,N-bis-hydroxyethyl-4-nitrosoaniline) and N—N-4-dimethyl-nitrosoaniline.
(§6) As used herein in the context of the relative or quantitative activity, the dehydrogenase activity is specifically defined to be the mole amount of the substrate (fructosyl amino acid) oxidized per unit time measured by the amount of electrons transferred to the mediator at 25° C. in 10 mM PPB (pH 7.0), 0.6 mM DCIP, and 6 mM methoxy PMS (mPMS).
as §2
as §3, with “1. […]” for “1.”

[3] = tested on: CC(C)[C@H](NCC1(O)OC[C@@H](O)[C@@H](O)[C@@H]1O)C(=O)N[C@@H](Cc1c[nH]cn1)C(=O)O; test: Oxidase activity kinetics (4AA/TODB/POD), PnFPOX wild type; assay type: biochemical, Phaeosphaeria nodorum; conditions: other: 4AA/TODB/POD, 25° C., pH 7.0
Text: as §1, §2, §3
(§7) The oxidase and dehydrogenase activities of the N56A mutant FAOD were measured. […]

[4] = tested on: CC(C)[C@H](NCC1(O)OC[C@@H](O)[C@@H](O)[C@@H]1O)C(=O)O; test: as above; assay type: biochemical, Phaeosphaeria nodorum; conditions: other: 4AA/TODB/POD, 25° C., pH 7.0
Text: as §1, §2, §3, §7

[5] = tested on: CC(C)[C@H](NCC1(O)OC[C@@H](O)[C@@H](O)[C@@H]1O)C(=O)O; test: Dehydrogenase activity kinetics (mPMS/DCIP), PnFPOX wild type; assay type: biochemical, Phaeosphaeria nodorum; conditions: other: mPMS/DCIP, 25° C., pH 7.0
Text: As used herein, “dehydrogenase activity” is an enzymatic activity (Vmax) of the fructosyl amino acid oxidase to catalyze oxidation of fructosyl amino acid to generate 2-keto-D-glucose and the corresponding amino acid while utilizing an electron mediator other than oxygen as an electron acceptor. […]
as §6
Escherichia coli BL21 (DE3) cells harboring expression vectors of N1-1 FAOD (SEQ ID NO: 2) mutants were grown in 150 ml of LB medium containing 50 μg/ml kanamycin at 37° C. […] The formation of quinoneimine dye was measured spectrophotometrically at 546 nm. […]
Mutations were introduced using site-directed mutagenesis as in Example 1, and BL21 (DE3) cells were transformed with an expression vector containing wild-type or mutant PnFPOX (SEQ ID NO: 1). […] The oxidase and dehydrogenase activities were measured as in Example 1.
as §7

[6] = tested on: CC(C)[C@H](NCC1(O)OC[C@@H](O)[C@@H](O)[C@@H]1O)C(=O)N[C@@H](Cc1c[nH]cn1)C(=O)O; test: Oxidase activity kinetics (4AA/TODB/POD), PnFPOX N56A mutant; assay type: biochemical, Phaeosphaeria nodorum; conditions: other: purified enzyme, 25° C., pH 7.0
Text: as §1, §2, §3, §4

[7] = tested on: CC(C)[C@H](NCC1(O)OC[C@@H](O)[C@@H](O)[C@@H]1O)C(=O)O; test: as above; assay type: biochemical, Phaeosphaeria nodorum; conditions: other: purified enzyme, 25° C., pH 7.0
Text: as §1, §2, §3, §4

[8] = tested on: CC(C)[C@H](NCC1(O)OC[C@@H](O)[C@@H](O)[C@@H]1O)C(=O)N[C@@H](Cc1c[nH]cn1)C(=O)O; test: Dehydrogenase activity kinetics (mPMS/DCIP), PnFPOX N56A mutant; assay type: biochemical, Phaeosphaeria nodorum; conditions: other: purified enzyme, 25° C., pH 7.0
Text: as §5, §6, §2
as §3, with “1. […]” for “1.”

[9] = tested on: CC(C)[C@H](NCC1(O)OC[C@@H](O)[C@@H](O)[C@@H]1O)C(=O)O; test: as above; assay type: biochemical, Phaeosphaeria nodorum; conditions: other: purified enzyme, 25° C., pH 7.0
Text: as §5, §6, §2
as §3, with “1. […]” for “1.”

[10] = substrate: CC(C)[C@H](NCC1(O)OC[C@@H](O)[C@@H](O)[C@@H]1O)C(=O)O; test: Oxidase activity kinetics (4AA/TODB/POD), N1-1 FAOD wild type; assay type: biochemical, Pichia sp. N1-1; conditions: 25° C., pH 7.0
Text: as §1, §2
(§8) The recombinant FAOD was purified as follows. First, a water-soluble fraction containing the enzyme was prepared from recombinant Escherichia coli. E. coli containing the expression vector was cultured in 7 L LB medium (37° C., in 10 L fermenter, 50 μg/ml ampicillin), then the expression was induced with IPTG (final concentration: 0.3 mM) at about OD660=0.7 and culture temperature was lowered to 30° C. The cells were suspended in 100 mM PPb (pH 7.0) and disrupted four times using a French press. […]

[11] = substrate: CC(C)[C@H](NCC1(O)OC[C@@H](O)[C@@H](O)[C@@H]1O)C(=O)O; test: Dehydrogenase activity kinetics (mPMS/DCIP), N1-1 FAOD wild type; assay type: biochemical, Pichia sp. N1-1; conditions: 25° C., pH 7.0
Text: as §5, §6, §2, §8

[12] = substrate: CC(C)[C@H](NCC1(O)OC[C@@H](O)[C@@H](O)[C@@H]1O)C(=O)O; test: Oxidase activity kinetics (4AA/TODB/POD), N1-1 FAOD N47A mutant; assay type: biochemical, Pichia sp. N1-1; conditions: 25° C., pH 7.0
Text: as §1, §2, §8

[13] = substrate: CC(C)[C@H](NCC1(O)OC[C@@H](O)[C@@H](O)[C@@H]1O)C(=O)O; test: Dehydrogenase activity kinetics (mPMS/DCIP), N1-1 FAOD N47A mutant; assay type: biochemical, Pichia sp. N1-1; conditions: 25° C., pH 7.0
Text: as §5, §6, §2, §8

T1 sequence (Q0UIL6 whole entry N56A): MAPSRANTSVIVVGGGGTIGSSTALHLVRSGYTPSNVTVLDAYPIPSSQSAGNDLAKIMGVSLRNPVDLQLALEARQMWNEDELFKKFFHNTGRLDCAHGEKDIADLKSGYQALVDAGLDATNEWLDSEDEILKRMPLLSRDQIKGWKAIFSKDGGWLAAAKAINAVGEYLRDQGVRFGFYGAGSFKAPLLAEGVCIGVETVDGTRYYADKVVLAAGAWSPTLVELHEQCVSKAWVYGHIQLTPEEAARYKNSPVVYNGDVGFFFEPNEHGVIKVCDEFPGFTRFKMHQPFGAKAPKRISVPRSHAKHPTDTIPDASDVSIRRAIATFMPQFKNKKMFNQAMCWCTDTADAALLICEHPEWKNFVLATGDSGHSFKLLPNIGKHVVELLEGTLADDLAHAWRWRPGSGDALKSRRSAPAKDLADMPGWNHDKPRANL

CC(C)[C@H](NCC1(O)OC[C@@H](O)[C@@H](O)[C@@H]1O)C(=O)N[C@@H](Cc1cnc[nH]1)C(=O)O (stereo partly shown) [f-αValHis, fructosyl valyl histidine]
Vmax [1]: 1.90 U/mg
Vmax [2]: 3.40 U/mg

fructosyl amino acid oxidase from Phaeosphaeria nodorum (PnFPOX), wild type, SEQ ID NO: 1 (Parastagonospora nodorum SN15)
Km [3]: 200 µM
Vmax [3]: 2.97 U/mg
Km [4]: 640 µM
Vmax [4]: 27.6 U/mg
Km [5]: 1100 µM
Vmax [5]: 28.0 U/mg

fructosyl amino acid oxidase from Phaeosphaeria nodorum (PnFPOX, SEQ ID NO: 1) variant N56A (Parastagonospora nodorum SN15; N56A)
Km [6]: 92 µM
Km [7]: 86 µM
Km [8]: 74 µM
Km [9]: 1600 µM

B1: fructosyl amino acid oxidase from Pichia sp. N1-1 (N1-1 FAOD), wild type, SEQ ID NO: 2 (Pichia sp. N1-1) (protein)
chain: MESIIIVGAGTFGLSTALQLARDGYKNIKCFDKFPVPSEIAAGNDSNKIFHYDYVAPLAKPNSKERLSLEALHLWKTDPVYKPYYHPVGFILAASSDAPLLHDKEYYEELQKNGLRNYRYISTPEEFREYLPILKGPLPNWRGYVLDGDNGWLHARDSLKSAYEECKRLGVEFVFGDDGEIVELLNENGKLTGIRARSGAIFSAQKYVLSSGANAVTLLNFQRQLEGKCFTLAHFKVTDEEAKAFKSLPVLFNAEKGFFFEADENNEIKICNEYPGFTHTNESGESIPLYRMEIPLESALEIRQYLKETMPQFADRPFTKTRICWCTDSPDMQLILCTHPEYTNLIVASGDSGNSFKIMPIIGKYVSKVVTKGDKGLDPEDKECWKWRPETWDKRGQVRWGGRYRVADLNEIEEWVSVENPTPHKLE
notes: 427 aa
Km ([10]; other: crude preparation): 2640 µM
Vmax ([10]; other: crude preparation): 0.71 U/mg
Km ([10]; other: purified enzyme): 4800 µM
Vmax ([10]; other: purified enzyme): 9.3 U/mg
Km ([11]; other: crude preparation): 3220 µM
Vmax ([11]; other: crude preparation): 0.60 U/mg
Km ([11]; other: purified enzyme): 4600 µM
Vmax ([11]; other: purified enzyme): 9.8 U/mg

B2: fructosyl amino acid oxidase from Pichia sp. N1-1 (N1-1 FAOD, SEQ ID NO: 2) variant N47A (Pichia sp. N1-1; N47A) (protein)
chain: B1 chain with N47A
notes: crude and purified
Km ([12]; other: crude preparation): 1420 µM
Vmax ([12]; other: crude preparation): 0.11 U/mg
Km ([12]; other: purified enzyme): 2200 µM
Vmax ([12]; other: purified enzyme): 1.4 U/mg
Km ([13]; other: crude preparation): 9130 µM
Vmax ([13]; other: crude preparation): 0.82 U/mg
Km ([13]; other: purified enzyme): 6200 µM
Vmax ([13]; other: purified enzyme): 6.0 U/mg

Source: patent US8497083B2, “Fructosyl amino acid oxidase” (priority 2009, dated 2013)
